According to patent publication US20190321401A1 (JUNO THERAPEUTICS, published 2019):

T1: HPV 16 E6 peptide on HLA-A*02:01 (human)
T1 peptide: TIHDIILECV


Legend:
[1] = target: T2, HPV16 E7(11-19)-peptide-MHC tetramer complex (human papillomavirus 16 (HPV16); human); assay: flow cytometry, peptide-MHC tetramer staining of TCR-transduced primary human T cells;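 note: normal donor T cells activated with anti-CD3/anti-CD28, then lentivirally transduced with TCRs, with mock-transduced cells as control, co-stained for the transduction marker and CD8, tetramers presented by HLA-A02:01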
T2 construct: also called E7(11-19)-specific tetramer; MHC/E7(11-19) peptide tetramer
Procedure: (§1) CD8+ and CD4+ T cells were isolated from normal human donors and were stimulated with anti-CD3/anti-CD28 reagent, and then were transduced with a lentiviral preparation encoding various TCRs, or were subjected to a mock transduction control (cells treated under the same conditions used for lentiviral transduction but without addition of lentivirus). Following transduction, the cells were cultured in media containing human serum and cytokines.
(§2) After transduction, the cells were assessed by flow cytometry for staining with an antibody that recognized the surrogate marker, an anti-CD8 antibody, and a HPV 16 E6(29-38)- or HPV16 E7(11-19)-peptide-MHC tetramer complex. […] The reference TCR contains a mouse constant region.
(§3) Column 3 and 4 sets forth the percentage of CD8+ cells and CD8− cells (CD4+ cells) positive for E7(11-19)-specific tetramer staining in flow cytometry. Column 5 and 6 sets forth the percentage of CD8+ cells and CD8− cells (CD4+ cells) positive for E6(29-38)-specific tetramer staining in flow cytometry.

[2] = target: T3, HPV 16 E6(29-38)-peptide-MHC tetramer complex (human papillomavirus 16 (HPV16); human); assay: as above
T3 construct: also called E6(29-38)-specific tetramer
Procedure: as §1, §2, §3

[3] = target: T1, HPV 16 E6 peptide on HLA-A*02:01; assay: multimer staining

| Binder | % of CD8+ cells positive for E7(11-19) tetramer staining [1] [%] | % of CD8- (CD4+) cells positive for E7(11-19) tetramer staining [1] [%] | % of CD8+ cells positive for E6(29-38) tetramer staining [2] [%] | % of CD8- (CD4+) cells positive for E6(29-38) tetramer staining [2] [%] | binding result [3] |
| --- | --- | --- | --- | --- | --- |
| TCR 62 (mouse constant regions) (TCR, V domains shown) V domain 1: AQTVTQSQPEMSVQEAETVTLSCTYDTSENNYYLFWYKQPPSRQMILVIRQEAYKQQNATENRFSVNFQKAAKSFSLKISDSQLGDTAMYFCALYTYKYIFGTGTRLKVLA V domain 2: EAGVAQSPRYKIIEKRQSVAFWCNPISGHATLYWYQQILGQGPKLLIQFQNNGVVDDSQLPKDRFSAERLKGVDSTLKIQPAKLEDSAVYLCASSLDTRGSSYNEQFFGPGTRLTVLE | 38.8 | 0.07 | 0.2 | 0.04 |  |
| TCR 63 (mouse constant regions) (TCR, V domains shown) V domain 1: SQELEQSPQSLIVQEGKNLTINCTSSKTLYGLYWYKQKYGEGLIFLMMLQKGGEEKSHEKITAKLDEKKQQSSLHITASQPSHAGIYLCGADIDDYKLSFGAGTTVTVRA V domain 2: GAGVSQSPRYKVAKRGQDVALRCDPISGHVSLFWYQQALGQGPEFLTYFQNEAQLDKSGLPSDRFFAERPEGSVSTLKIQRTQQEDSAVYLCASRPRQGYNDNEQFFGPGTRLTVLE | 0.3 | 0.25 | 0.23 | 0.12 |  |
| TCR 63 (TCR, V domains shown) Valpha: SQELEQSPQSLIVQEGKNLTINCTSSKTLYGLYWYKQKYGEGLIFLMMLQKGGEEKSHEKITAKLDEKKQQSSLHITASQPSHAGIYLCGADIDDYKLSFGAGTTVTVRA Vbeta: GAGVSQSPRYKVAKRGQDVALRCDPISGHVSLFWYQQALGQGPEFLTYFQNEAQLDKSGLPSDRFFAERPEGSVSTLKIQRTQQEDSAVYLCASRPRQGYNDNEQFFGPGTRLTVL |  |  |  |  | no recognition |
| TCR 65 (mouse constant regions) (TCR, V domains shown) V domain 1: EDQVTQSPEALRLQEGESSSLNCSYTVSGLRGLFWYRQDPGKGPEFLFTLYSAGEEKEKERLKATLTKKESFLHITAPKPEDSATYLCAVQAERGSTLGRLYFGRGTQLTVWP V domain 2: DVKVTQSSRYLVKRTGEKVFLECVQDMDHENMFWYRQDPGLGLRLIYFSYDVKMKEKGDIPEGYSVSREKKERFSLILESASTNQTSMYLCASSLWGRRNTGELFFGEGSRLTVLE | 0.26 | 0.07 |  |  |  |
| TCR 64 (mouse constant regions) (TCR, V domains shown) V domain 1: AQKVTQAQTEISVVEKEDVTLDCVYETRDTTYYLFWYKQPPSGELVFLIRRNSFDEQNEISGRYSWNFQKSTSSFNFTITASQVVDSAVYFCALSGVDNYGQNFVFGPGTRLSVLP V domain 2: DTAVSQTPKYLVTQMGNDKSIKCEQNLGHDTMYWYKQDSKKFLKIMFSYNNKELIINETVPNRFSPKSPDKAHLNLHINSLELGDSAVYFCASSQGEAGANVLTFGAGSRLTVLE | 0.13 | 0.06 | 0.17 | 0.11 |  |
| TCR 64 (TCR, V domains shown) Valpha: AQKVTQAQTEISVVEKEDVTLDCVYETRDTTYYLFWYKQPPSGELVFLIRRNSFDEQNEISGRYSWNFQKSTSSFNFTITASQVVDSAVYFCALSGVDNYGQNFVFGPGTRLSVLP Vbeta: DTAVSQTPKYLVTQMGNDKSIKCEQNLGHDTMYWYKQDSKKFLKIMFSYNNKELIINETVPNRFSPKSPDKAHLNLHINSLELGDSAVYFCASSQGEAGANVLTFGAGSRLTVL |  |  |  |  | no recognition |
| TCR 56 (mouse constant regions) (TCR, V domains shown, Human variable regions on mouse constant regions with added cysteines (Calpha Thr48Cys, Cbeta Ser57Cys); Entries are the full chains without signal peptide) V domain 1: GQNIDQPTEMTATEGAIVQINCTYQTSGFNGLFWYQQHAGEAPTFLSYNVLDGLEEKGRFSSFLSRSKGYSYLLLKELQMKDSASYLCAVRDWGYGGATNKLIFGTGTLLAVQP V domain 2: NAGVMQNPRHLVRRRGQEARLRCSPMKGHSHVYWYRQLPEEGLKFMVYLQKENIIDESGMPKERFSAEFPKEGPSILRIQQVVRGDSAAYFCASSPDESRDSNQPQHFGDGTRLSILE | 0.05 | 0.13 | 0.07 | 0.12 |  |
| TCR 57 (mouse constant regions) (TCR, V domains shown) V domain 1: TQLLEQSPQFLSIQEGENLTVYCNSSSVFSSLQWYRQEPGEGPVLLVTVVTGGEVKKLKRLTFQFGDARKDSSLHITAAQPGDTGLYLCAGARNFNKFYFGSGTKLNVKP V domain 2: GAVVSQHPSWVICKSGTSVKIECRSLDFQATTMFWYRQFPKQSLMLMATSNEGSKATYEQGVEKDKFLINHASLTLSTLTVTSAHPEDSSFYICSARSWRGGLEQFFGPGTRLTVLE | 95 | 86 | 0.23 | 0.19 |  |
| TCR 58 (mouse constant regions) (TCR, V domains shown) V domain 1: RKEVEQDPGPFNVPEGATVAFNCTYSNSASQSFFWYRQDCRKEPKLLMSVYSSGNEDGRFTAQLNRASQYISLLIRDSKLSDSATYLCVVNRDNYGQNFVFGPGTRLSVLP V domain 2: EPEVTQTPSHQVTQMGQEVILRCVPISNHLYFYWYRQILGQKVEFLVSFYNNEISEKSEIFDDQFSVERPDGSNFTLKIRSTKLEDSAMYFCASTPRSSYEQYFGPGTRLTVTE | 9.91 | 0.1 | 0.14 | 0.11 |  |
| TCR 61 (mouse constant regions) (TCR, V domains shown) V domain 1: QKEVEQNSGPLSVPEGAIASLNCTYSDRGSQSFFWYRQYSGKSPELIMFIYSNGDKEDGRFTAQLNKASQYVSLLIRDSQPSDSATYLCAVNIENNNARLMFGDGTQLVVKP V domain 2: EPEVTQTPSHQVTQMGQEVILRCVPISNHLYFYWYRQILGQKVEFLVSFYNNEISEKSEIFDDQFSVERPDGSNFTLKIRSTKLEDSAMYFCASTKRFSYEQYFGPGTRLTVTE | 17.2 | 0.13 | 0.15 | 0.12 |  |
| TCR 60 (mouse constant regions) (TCR, V domains shown) V domain 1: QKEVEQNSGPLSVPEGAIASLNCTYSDRGSQSFFWYRQYSGKSPELIMFIYSNGDKEDGRFTAQLNKASQYVSLLIRDSQPSDSATYLCAVNMLGSGGSNYKLTFGKGTLLTVNP V domain 2: EPEVTQTPSHQVTQMGQEVILRCVPISNHLYFYWYRQILGQKVEFLVSFYNNEISEKSEIFDDQFSVERPDGSNFTLKIRSTKLEDSAMYFCAISRTVSYEQYFGPGTRLTVTE | 21.5 | 0.13 | 0.15 | 0.07 |  |
| TCR 59 (mouse constant regions) (TCR, V domains shown) V domain 1: GQQVMQIPQYQHVQEGEDFTTYCNSSTTLSNIQWYKQRPGGHPVFLIQLVKSGEVKKQKRLTFQFGEAKKNSSLHITATQTTDVGTYFCAPKREYGNKLVFGAGTILRVKS V domain 2: EPEVTQTPSHQVTQMGQEVILRCVPISNHLYFYWYRQILGQKVEFLVSFYNNEISEKSEIFDDQFSVERPDGSNFTLKIRSTKLEDSAMYFCAYSGRASYEQYFGPGTRLTVTE | 28 | 0.16 | 0.11 | 0.16 |  |
